Values belong to the binder of their own block, whether it stands above or below them.
Experiments:
[1] = molecular target: T1, human CD8 on human T cells (human, UniProt P01732 22-235; P10966 22-210); experiment: cell-based or functional assay
[2] = molecular target: T2, cynomolgus monkey CD8 on cynomolgus cells (cynomolgus monkey); experiment: cell-based or functional assay
[3] = molecular target: T1, human CD8 on human T cells; experiment: flow cytometry, human PBMCs incubated 30 min at 37 C with the fusion protein, anti-IL-12, gated on CD8+ T cells
Procedure: (§1) Fusion proteins H6K3-IgG-IL12 (LC) and H6K3-IgG-IL12 (1×HC) were also evaluated for their ability to bind CD8-expressing cells in human and cynomolgus monkey PBMCs. Briefly, 5×10⁴ human PBMCs (StemCell Technologies) or cynomolgus monkey PBMCs (iQ Biosciences) were incubated with 7 serial 5-fold dilutions of one of the two aforementioned H6K3-IgG-IL12 constructs for 30 minutes at 37° C. Cells were washed twice with MACS buffer and stained with viability dye and fluorophore-conjugated antibodies against IL-12 and cell-surface markers for 20 minutes at 4° C. Cells were analyzed on a FACSCelesta using Diva software (BD Biosciences). Binding activity for all treatments was quantified and represented as the mean fluorescence intensity values of IL-12 on human CD8+ T cells and NK cells (FIGS. 17A-17B) and on cynomolgus monkey CD8+ T cells and NK cells (FIGS. 17C-17D). For the H6K3-IgG-IL12 (LC) treatments, results are also reported as the frequency of IL-12+CD8+ T cells and NK cells (FIG. 17E). As shown in FIGS. 17A-17D, both H6K3-IgG-IL12 (LC) and H6K3-IgG-IL12 (1×HC) were able to selectively bind human CD8+ T cells over NK cells at a range of concentrations. Only a small proportion of human NK cells express CD8, and therefore the H6K3-IgG-IL12 (LC) construct only bound a small proportion of human NK cells (FIG. 17E upper left and upper right). […]

[4] = molecular target: T2, cynomolgus monkey CD8 on cynomolgus …; experiment: flow cytometry, cynomolgus PBMCs incubated 30 min at 37 C with the fusion protein, anti-IL-12, gated on NK cells, which express CD8 in the cynomolgus monkey
Procedure: as §1

[5] = molecular target: T2, cynomolgus monkey CD8 on cynomolgus …; experiment: flow cytometry, cynomolgus PBMCs incubated 30 min at 37 C with the fusion protein, anti-IL-12, gated on CD8+ T cells
Procedure: as §1

[6] = molecular target: T1, human CD8 on human T cells; experiment: flow cytometry, human PBMCs incubated 30 min at 37 C with the fusion protein, AF647 anti-human IL-12, gated on CD8+ T cells
Procedure: Fusion proteins H6K3-IgG-IL12 (LC) and H6K3-IgG-IL12 (1×HC) were evaluated for their ability to selectively bind human CD8+ T cells in PBMCs. Briefly, 5×10⁴ human PBMCs (StemCell Technologies) were incubated with 7 serial 5-fold dilutions of one of the two aforementioned H6K3-IgG-IL12 constructs for 30 minutes at 37° C. Cells were washed twice with MACS buffer and stained for 20 minutes at 4° C. with fluorophore-conjugated anti-CD3, anti-CD4, anti-CD8, anti-CD56, and anti-IL12 antibodies, and viability dye. Cells were analyzed on a FACSCelesta using Diva software (BD Biosciences). Binding activity was quantified and represented as the mean fluorescent intensity values of IL-12 on either CD8+ T cells or NK Cells. As shown in FIGS. 16A-16B, both H6K3-IgG-IL12 (LC) and H6K3-IgG-IL12 (1×HC) were able to selectively bind human CD8+ T cells over NK cells at a range of concentrations.

[7] = molecular target: T1, human CD8 on human T cells; experiment: cell-based or functional assay; remark: listed apart in the source
mouse CD8 on mouse cells = molecular target: T3, mouse CD8 on mouse cells (mouse, UniProt P01731 28-247); experiment: in vivo, B16F10 tumour-bearing mice, flow cytometry of peripheral blood 4 days after the first i.v. dose; % IL-12p40+ of CD8+ T cells
T3 construct: whole, on cells; Carried by CD8+ T cells and CD8+ dendritic cells of C57BL/6 mice, read ex vivo after dosing; also called mCD8
Procedure: Mice were injected weekly for a total of 4 doses, at a dose equivalent to 10 μg of recombinant IL12. Tumor volume was measured twice per week, and mice were euthanized if tumor volume exceeded 2000 mm³. […] Specifically, in the MC38 model, treatment with the CD8IgG-IL12 (LC) Clone 2 construct controlled tumor growth up to day 21 and yielded 3/8 complete responders, whereas treatment with the CD8IgG-IL12 (1×HC) construct controlled tumor growth for the entire duration of the study and yielded 7/8 complete responders (FIGS. 6A-6C). In the B16-F10 model, which is typically less responsive to immunotherapy, both constructs limited tumor growth for up to 14 days after the initial dose (FIGS. 7A-7C).
In the same study, the two anti-CD8:IL-12 fusion constructs were also evaluated for their ability to be retained in tissues. Peripheral blood cells were collected from MC38 and B16-F10 tumor-bearing mice 4 days after administration of the first dose of the IL-12 construct. Samples were analyzed by flow cytometry. In the case of the MC38 tumor-bearing mice, IL-12 was detected on the surface of CD8⁺ T cells 4 days post-treatment with either of the two anti-CD8:IL-12 fusion protein constructs, but not on the surface of CD4⁺ T cells or NK cells (FIG. 8A). […]

T1 sequence (P01732 22-235, chain 1 of 2): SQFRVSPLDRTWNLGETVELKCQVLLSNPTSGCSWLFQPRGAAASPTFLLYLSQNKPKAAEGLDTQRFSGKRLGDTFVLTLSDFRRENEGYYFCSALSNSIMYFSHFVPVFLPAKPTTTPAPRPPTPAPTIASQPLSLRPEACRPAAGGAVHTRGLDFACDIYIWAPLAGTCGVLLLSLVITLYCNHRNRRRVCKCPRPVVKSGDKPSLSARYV
T1 sequence (P10966 22-210, chain 2 of 2): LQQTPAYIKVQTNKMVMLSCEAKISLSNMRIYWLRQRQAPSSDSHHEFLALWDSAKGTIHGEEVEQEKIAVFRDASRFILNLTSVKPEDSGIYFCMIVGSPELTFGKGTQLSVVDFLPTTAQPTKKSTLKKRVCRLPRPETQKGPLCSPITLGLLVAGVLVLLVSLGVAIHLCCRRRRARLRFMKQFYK
T3 sequence (P01731 28-247): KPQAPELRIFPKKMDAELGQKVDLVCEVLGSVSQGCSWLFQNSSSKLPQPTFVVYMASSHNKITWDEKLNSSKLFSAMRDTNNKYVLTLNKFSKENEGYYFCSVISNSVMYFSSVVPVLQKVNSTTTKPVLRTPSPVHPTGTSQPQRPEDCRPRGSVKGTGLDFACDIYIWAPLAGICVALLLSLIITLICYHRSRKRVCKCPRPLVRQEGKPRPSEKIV

B2: 03A01-IgG-IL12 (LC) (other, not shown: a dimerising Fc or GST)
heavy: DVQFQESGPGLVKPSQSLSLTCTVTGYSITSDFAWNWIRQFPGNELEWMGYISYSGDTNYNPSLRSRISITRDTSKNQFFLQLDSVTTEDTATYYCTIRGYYTDSAFVFWGQGTLVTVSA
light: DIQMTQSSSYLSVSLGGRVTITCKASDHINNWLAWYQQKPGNAPRLLISGATSLETGVPSRFTGSGSGLDYTLSITSLQTEDVATYYCQQYWNSPFTFGSGTKLEIK
EC50 for stimulation of pSTAT4 signaling, CD8+ T cells in pre-activated human PBMCs [7]: 14.7 pM

B4: 02A01-IgG-IL12 (LC) (other, not shown: a dimerising Fc or GST)
heavy: EVQLQQSGPELVKPGASLKISCKASGYTFTDFTMHWVKQSHGKSLEWIGLVNPNNGGNIYNQNFKGKATLTVDTSSSTAYMELRSLTSEDSSVYYCGRVPLYTSHGMDYWGQGTSVTVSS
light: DIVLTQSPAFLAVSLGQRATISCRASESVDSYDINSMHWYQQKPGQPPKLLIYRASHLQSGIPARFSGSGSRTDFTLTINFVEADDVATYYCQQSNEDPLTFGAGTKLELK
EC50 for stimulation of pSTAT4 signaling, CD8+ T cells in pre-activated human PBMCs [7]: 2.72 pM

The remaining lines, values ahead:

EC50 for stimulation of pSTAT4 signaling, human CD8+ T cells in activated PBMCs [1]: 2.3 pM
EC50 for stimulation of pSTAT4 signaling, cynomolgus CD8+ T cells in activated PBMCs [2]: 2.3 pM
EC50 for stimulation of pSTAT4 signaling, cynomolgus NK cells in activated PBMCs [2]: 2 pM
EC50 (read off the curve) [3]: ~0.04 nM
EC50 (read off the curve) [4]: ~0.09 nM
EC50 (read off the curve) [5]: ~0.05 nM
EC50 (read off the curve) [6]: ~0.06 nM
B1: H6K3-IgG-IL12 (1×HC) (other)
heavy 1: EVQLVQSGAEVKKPGATVKISCKASGYTFTDFTMHWVQQAPGKGLEWIGLVNPNNGGNIYAEKFQGRVTLTVDTSTSTAYMELSSLRSEDTAVYYCGRVPLYTSHGMDYWGQGTLVTVSSASTKGPSVFPLAPSSKSTSGGTAALGCLVKDYFPEPVTVSWNSGALTSGVHTFPAVLQSSGLYSLSSVVTVPSSSLGTQTYICNVNHKPSNTKVDKKVEPKSCDKTHTCPPCPAPEAAGGPSVFLFPPKPKDTLMISRTPEVTCVVVDVSHEDPEVKFNWYVDGVEVHNAKTKPREEQYASTYRVVSVLTVLHQDWLNGKEYKCKVSNKALGAPIEKTISKAKGQPREPQVYTLPPSRDELTKNQVSLWCLVKGFYPSDIAVEWESNGQPENNYKTTPPVLDSDGSFFLYSKLTVDKSRWQQGNVFSCSVMHEALHNHYTQKSLSLSPGKGGGSGGGGSGGGGSGGGGSIWELKKDVYVVELDWYPDAPGEMVVLTCDTPEEDGITWTLDQSSEVLGSGKTLTIQVKEFGDAGQYTCHKGGEVLSHSLLLLHKKEDGIWSTDILKDQKEPKNKTFLRCEAKNYSGRFTCWWLTTISTDLTFSVKSSRGSSDPQGVTCGAATLSAERVRGDNKEYEYSVECQEDSACPAAEESLPIEVMVDAVHKLKYENYTSSFFIRDIIKPDPPKNLQLKPLKNSRQVEVSWEYPDTWSTPHSYFSLTFCVQVQGKSKREKKDRVFTDKTSATVICRKNASISVRAQDRYYSSSWSEWASVPCSGGGSGGGSGGGSGGGSRNLPVATPDPGMFPCLHHSQNLLRAVSNMLQKARQTLEFYPCTSEEIDHEDITKDKTSTVEACLPLELTKNESCLNSRETSFITNGSCLASRKTSFMMALCLSSIYEDLKMYQVEFKTMNAKLLMDPKRQIFLDQNMLAVIDELMQALNFNSETVPQKSSLEEPDFYKTKIKLCILLHAFRIRAVTIDRVMSYLNAS
heavy 2: EVQLVQSGAEVKKPGATVKISCKASGYTFTDFTMHWVQQAPGKGLEWIGLVNPNNGGNIYAEKFQGRVTLTVDTSTSTAYMELSSLRSEDTAVYYCGRVPLYTSHGMDYWGQGTLVTVSSASTKGPSVFPLAPSSKSTSGGTAALGCLVKDYFPEPVTVSWNSGALTSGVHTFPAVLQSSGLYSLSSVVTVPSSSLGTQTYICNVNHKPSNTKVDKKVEPKSCDKTHTCPPCPAPEAAGGPSVFLFPPKPKDTLMISRTPEVTCVVVDVSHEDPEVKFNWYVDGVEVHNAKTKPREEQYASTYRVVSVLTVLHQDWLNGKEYKCKVSNKALGAPIEKTISKAKGQPREPQVYTLPPSRDELTKNQVSLSCAVKGFYPSDIAVEWESNGQPENNYKTTPPVLDSDGSFFLVSKLTVDKSRWQQGNVFSCSVMHEALHNHYTQKSLSLSPGK
light: EIVLTQSPATLSLSPGERATISCRASESVDSYDINSMHWYQQKPGQAPRLLIYRASHLQSGIPARFSGSGSRTDFTLTISSLEPEDFATYYCQQSNEDPLTFGQGTKLEIKRTVAAPSVFIFPPSDEQLKSGTASVVCLLNNFYPREAKVQWKVDNALQSGNSQESVTEQDSKDSTYSLSSTLTLSKADYEKHKVYACEVTHQGLSSPVTKSFNRGEC
notes: also called hCD8IgG-1×IL12 (HC); hCD8IgG-IL12 (1 × HC)

binding result (mouse CD8 on mouse cells): no binding
B3: rIL-12 (ligand)
alpha: RVIPVSGPARCLSQSRNLLKTTDDMVKTAREKLKHYSCTAEDIDHEDITRDQTSTLKTCLPLELHKNESCLATRETSSTTRGSCLPPQKTSLMMTLCLGSIYEDLKMYQTEFQAINAALQNHNHQQIILDKGMLVAIDELMQSLNHNGETLRQKPPVGEADPYRVKMKLCILLHAFSTRVVTINRVMGYLSSA
beta: MWELEKDVYVVEVDWTPDAPGETVNLTCDTPEEDDITWTSDQRHGVIGSGKTLTITVKEFLDAGQYTCHKGGETLSHSHLLLHKKENGIWSTEILKNFKNKTFLKCEAPNYSGRFTCSWLVQRNMDLKFNIKSSSSSPDSRAVTCGMASLSAEKVTLDQRDYEKYSVSCQEDVTCPTAEETLPIELALEARQQNKYENYSTSFFIRDIIKPDPPKNLQMKPLKNSQVEVSWEYPDSWSTPHSYFSLKFFVRIQRKKEKMKETEEGCNQKGAFLVEKTSTEVQCKGGNVCVQAQDRYYNSSCSKWACVPCRVRS
notes: also called rmIL-12; non-targeted recombinant mouse IL-12; copies: 1 + 1

— US20250101107A1 (REPERTOIRE IMMUNE MEDICINES, published 2025)
